# B1: Mothers against decapentaplegic homolog 4 (Homo sapiens), Q13485 (parent)
# chain: MDNMSITNTPTSNDACLSIVHSLMCHRQGGESETFAKRAIESLVKKLKEKKDELDSLITAITTNGAHPSKCVTIQRTLDGRLQVAGRKGFPHVIYARLWRWPDLHKNELKHVKYCQYAFDLKCDSVCVNPYHYERVVSPGIDLSGLTLQSNAPSSMMVKDEYVHDFEGQPSLSTEGHSIQTIQHPPSNRASTETYSTPALLAPSESNATSTANFPNIPVASTSQPASILGGSHSEGLLQIASGPQPGQQQNGFTGQPATYHHNSTTTWTGSRTAPYTPNLPHHQNGHLQHHPPMPPHPGHYWPVHNELAFQPPISNHPAPEYWCSIAYFEMDVQVGETFKVPSSCPIVTVDGYVDPSGGDRFCLGQLSNVHRTEAIERARLHIGKGVQLECKGEGDVWVRCLSDHAVFVQSYYLDREAGRAPGDAVHKIYPSAYIKVFDLRQCHRQMQQQAATAQAAAAAQAAAVAGNIPGPGSVGGIAPAISLSAAAGIGVDDLRRLCILRMSFVKGWGPDYPRQSIKETPCWIEIHLHRALQLLDEVLHTMPIADPQPLD
# Variants of: B1
# Conditions: with rnf43_human RNF43, Q68DV7
row,Variant,effect of a mutation on the interaction
1,D351H,with no effect

# Variants of: B1
# Conditions: with ros1_human ROS1, P08922
row,Variant,effect of a mutation on the interaction
1,D351H,with no effect

# Variants of: B1
# Conditions: with rl5_human RPL5, P46777
row,Variant,effect of a mutation on the interaction
1,D351H,with no effect

# Variants of: B1
# Conditions: with runx1_human RUNX1, Q01196
row,Variant,effect of a mutation on the interaction
1,D351H,with no effect

# Variants of: B1
# Conditions: with ruvb1_human RUVBL1, Q9Y265
row,Variant,effect of a mutation on the interaction
1,D351H,with no effect

# Variants of: B1
# Conditions: with sdha_human SDHA
row,Variant,effect of a mutation on the interaction
1,D351H,with no effect

# Variants of: B1
# Conditions: with sf3b1_human SF3B1, O75533
row,Variant,effect of a mutation on the interaction
1,D351H,with no effect

# Variants of: B1
# Conditions: with skp2_human SKP2, Q13309
row,Variant,effect of a mutation on the interaction
1,D351H,with no effect

# Variants of: B1
# Conditions: with smad1_human SMAD1, Q15797
row,Variant,effect of a mutation on the interaction
1,D351H,with no effect

# Variants of: B1
# Conditions: with smad2_human SMAD2, Q15796
row,Variant,effect of a mutation on the interaction
1,D351H,with no effect

# Variants of: B1
# Conditions: with smad3_human SMAD3, P84022
row,Variant,effect of a mutation on the interaction
1,D351H,with no effect

# Variants of: B1
# Conditions: with smca4_human SMARCA4, P51532
row,Variant,effect of a mutation on the interaction
1,D351H,with no effect

# Variants of: B1
# Conditions: with snf5_human SMARCB1, Q12824
row,Variant,effect of a mutation on the interaction
1,D351H,with no effect

# Variants of: B1
# Conditions: with smo_human SMO
row,Variant,effect of a mutation on the interaction
1,D351H,with no effect

# Variants of: B1
# Conditions: with sox10_human SOX10, P56693
row,Variant,effect of a mutation on the interaction
1,D351H,with no effect

# Variants of: B1
# Conditions: with sox2_human SOX2, P48431
row,Variant,effect of a mutation on the interaction
1,D351H,with no effect

# Variants of: B1
# Conditions: with sox3_human SOX3, P41225
row,Variant,effect of a mutation on the interaction
1,D351H,with no effect

# Variants of: B1
# Conditions: with sox4_human SOX4, Q06945
row,Variant,effect of a mutation on the interaction
1,D351H,with no effect

# Variants of: B1
# Conditions: with sox9_human SOX9, P48436
row,Variant,effect of a mutation on the interaction
1,D351H,with no effect

# Variants of: B1
# Conditions: with spop_human SPOP
row,Variant,effect of a mutation on the interaction
1,D351H,with no effect

# Variants of: B1
# Conditions: with src_human SRC
row,Variant,effect of a mutation on the interaction
1,D351H,with no effect

# Variants of: B1
# Conditions: with stat3_human STAT3, P40763
row,Variant,effect of a mutation on the interaction
1,D351H,with no effect

# Variants of: B1
# Conditions: with stk38_human STK38, Q15208
row,Variant,effect of a mutation on the interaction
1,D351H,with no effect

# Variants of: B1
# Conditions: with ksyk_human SYK
row,Variant,effect of a mutation on the interaction
1,D351H,with no effect

# Variants of: B1
# Conditions: with eloc_human ELOC
row,Variant,effect of a mutation on the interaction
1,D351H,with no effect

# Variants of: B1
# Conditions: with tfe2_human TCF3, P15923
row,Variant,effect of a mutation on the interaction
1,D351H,with no effect

# Variants of: B1
# Conditions: with tead1_human TEAD1, P28347
row,Variant,effect of a mutation on the interaction
1,D351H,with no effect

# Variants of: B1
# Conditions: with tead2_human TEAD2, Q15562
row,Variant,effect of a mutation on the interaction
1,D351H,with no effect

# Variants of: B1
# Conditions: with tead3_human TEAD3, Q99594
row,Variant,effect of a mutation on the interaction
1,D351H,with no effect

# Variants of: B1
# Conditions: with tert_human TERT
row,Variant,effect of a mutation on the interaction
1,D351H,with no effect

# Variants of: B1
# Conditions: with tgfr2_human TGFBR2, P37173
row,Variant,effect of a mutation on the interaction
1,D351H,with no effect

# Variants of: B1
# Conditions: with tnr14_human TNFRSF14, Q92956
row,Variant,effect of a mutation on the interaction
1,D351H,with no effect

# Variants of: B1
# Conditions: with tpx2_human TPX2, Q9ULW0
row,Variant,effect of a mutation on the interaction
1,D351H,with no effect

# Variants of: B1
# Conditions: with tsc2_human TSC2, P49815
row,Variant,effect of a mutation on the interaction
1,D351H,with no effect

# Variants of: B1
# Conditions: with tshr_human TSHR
row,Variant,effect of a mutation on the interaction
1,D351H,with no effect

# Variants of: B1
# Conditions: with vegfa_human VEGFA
row,Variant,effect of a mutation on the interaction
1,D351H,with no effect

# Variants of: B1
# Conditions: with vhl_human VHL
row,Variant,effect of a mutation on the interaction
1,D351H,with no effect

# Variants of: B1
# Conditions: with wt1_human WT1, P19544
row,Variant,effect of a mutation on the interaction
1,D351H,with no effect

# Variants of: B1
# Conditions: with wwtr1_human WWTR1, Q9GZV5
row,Variant,effect of a mutation on the interaction
1,D351H,with no effect

# Variants of: B1
# Conditions: with xpo1_human XPO1, O14980
row,Variant,effect of a mutation on the interaction
1,D351H,with no effect

# Variants of: B1
# Conditions: with 1433b_human YWHAB
row,Variant,effect of a mutation on the interaction
1,D351H,with no effect

# Variants of: B1
# Conditions: with 1433e_human YWHAE
row,Variant,effect of a mutation on the interaction
1,D351H,with no effect

# Variants of: B1
# Conditions: with 1433z_human YWHAZ
row,Variant,effect of a mutation on the interaction
1,D351H,with no effect

# Variants of: B1
# Conditions: with arc1a_human ARPC1A
row,Variant,effect of a mutation on the interaction
1,D351H,causing an interaction
